From the supplement of paper PMC10724198
± gives the standard deviation of the averaged measurements.

System: Saccharomyces cerevisiae
Experiment: protein stability index of tFT-peptide fusion (C-terminal peptide) (PSI (0-1 scale)); higher = more stable (slower turnover)
Conditions: genetic background: wild type; temperature: 30 C
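Also: PSI is a weighted mean of sequencing reads over stability bins, variants kept only with over 10 reads, mCherry proximal and sfGFP distal, peptide attached via GGGS linker.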

Sequence | protein stability index
TPRPPPSSFLSL | 0.679 ± 0.05
RGRGRVFVFGNW | 0.726 ± 0.033
PLPRLSYRPPTL | 0.663 ± 0.028
HPPPLGSSASNS | 0.703 ± 0.039
VKKVSSVGGREG | 0.643 ± 0.1
PLLPPPPPPPPT | 0.718 ± 0.025
PKVDLSVVRSGY | 0.638 ± 0.016
GASPLPSPADHL | 0.717 ± 0.14
DRLSSPYTLFCY | 0.571 ± 0.037
PPLAAFLPFLAL | 0.694 ± 0.0011
LGRGGVAWGAWW | 0.836 ± 0.11
RDGLWCFSEFLG | 0.731 ± 0.048
AVPITRLPSPSP | 0.6668 ± 0.0047
SPRPTRPALLPP | 0.708 ± 0.033
HPPPTSQPPPGP | 0.726 ± 0.05
IMNNSKIYRSVG | 0.6593 ± 0.0021
VEHHSKQIEKGR | 0.681 ± 0.053
IPSCAGLPLSLS | 0.7134 ± 0.0019
ETNSSSEFPLNF | 0.755 ± 0.0089
HPPPPSPPSPLP | 0.724 ± 0.036
PRPLPAPPQRNL | 0.628 ± 0.017
PIALPLPPPTPS | 0.757 ± 0.08
LSPGSSPAVSGF | 0.722 ± 0.13
VPSSCFLLDLPP | 0.648 ± 0.047
SFTSGFTDAGNI | 0.6008 ± 0.0047
GGDCGERRGNEV | 0.65 ± 0.05

Sequence | protein stability index
PALPPPGSPPPS | 0.616 ± 0.01
RGFMLGFVSRFS | 0.625 ± 0.039
KIHINTMFQIKK | 0.536 ± 0.051
DTTTQPMSYEDP | 0.669 ± 0.22
ASPFASCPPSLP | 0.714 ± 0.037
CDEVEGVLLVRG | 0.707 ± 0.047
PHARHPPDHRPF | 0.678 ± 0.059
PPPPLAPLPPAS | 0.608 ± 0.12
HLIPSPPTPPRP | 0.664 ± 0.0072
FCSSVSFPPAPL | 0.642 ± 0.035
VRARTAFVPLPA | 0.727 ± 0.097
LHLPLPPLQLSL | 0.697 ± 0.0072
LTLPPACFPRLR | 0.723 ± 0.059
GGGCGGGGSSCA | 0.654 ± 0.069
ALSRSCPSGAFL | 0.727 ± 0.01
LLGLWSFLIPPS | 0.677 ± 0.0023
WFLLTSSTSRPP | 0.737 ± 0.059
MNSDQSGQGLTV | 0.711 ± 0.011
DQSLHAWSLRCT | 0.771 ± 0.011
SDLKARYHCGRD | 0.652 ± 0.075
LPSPSSLPAPPV | 0.677 ± 0.031
PLPGLLHCPTSP | 0.717 ± 0.12
LSPRSSGCPRWF | 0.677 ± 0.019
ASDSNPLDPADD | 0.708 ± 0.011
RRFKIDKNKIKL | 0.683 ± 0.018
VVSFGRIGGVGR | 0.675 ± 0.027

Sequence | protein stability index
TPPLCAPPLPPP | 0.7022 ± 0.0054
EEKASKSSRLKK | 0.699 ± 0.036
VLSPVFLISLFS | 0.552 ± 0.016
MTESLIGCLSGD | 0.7 ± 0.0074
IKKKKKKKKKRD | 0.652 ± 0.016
LSETTAYLQQAS | 0.693 ± 0.1
PPHPPRPSVSSS | 0.687 ± 0.0097
GDFFVSFRCLLL | 0.606 ± 0.027
VTLWQLANNTLG | 0.626 ± 0.028
PPPPLPFSPPDP | 0.681 ± 0.044
PKKNIKSKNIIL | 0.714 ± 0.034
LLVNLNINYFKR | 0.689 ± 0.018
APGPPPLPHPPT | 0.717 ± 0.022
TFPATSLPSFSL | 0.6861 ± 0.0031
SPRFLLNCWGRL | 0.821 ± 0.027
SLCPVTPPSVGF | 0.656 ± 0.02
CAIGECRGAGVS | 0.679 ± 0.032
PSPPPTPPLICL | 0.697 ± 0.025
ISPQEPLVNTTN | 0.665 ± 0.018
RIAPSLPPSSFL | 0.688 ± 0.0095
LLSPDAALGRLF | 0.692 ± 0.025
SKKLSMNIIITN | 0.653 ± 0.0047
EQICNCKIIMVE | 0.5669 ± 0.003
APASPSFPLSAP | 0.673 ± 0.025
NVTIRVAIRYHE | 0.575 ± 0.021
PPPPSLPPPPRS | 0.693 ± 0.035

Sequence | protein stability index
IMKQHNYIGFVF | 0.608 ± 0.062
ELGLGGCGGLGV | 0.7 ± 0.03
GLCVFVNKPSIL | 0.711 ± 0.011
KHKRKGSERKQG | 0.608 ± 0.0066
NHRANKIRKCKD | 0.6298 ± 0.0016
GGELGGTGVGGG | 0.6881 ± 0.0016
SVWDGSRVKCST | 0.704 ± 0.04
LQSSSCLLYPSS | 0.681 ± 0.026
PHRPTALALHWF | 0.66 ± 0.0067
NVGEWGTAVMSR | 0.684 ± 0.034
LSRPTSWLLSFL | 0.777 ± 0.12
CLRFPALPRRHP | 0.772 ± 0.017
HPPPTPPSPPPP | 0.667 ± 0.088
WSTGEKMALHGR | 0.787 ± 0.12
WRSGRGRCAVSQ | 0.721 ± 0.045
LRHRAYPKLFPA | 0.708 ± 0.011
PPDLSWPPAPLP | 0.824 ± 0.021
WIFHHSKTTLAP | 0.7158 ± 0.0052
YQDGLCYYFCTT | 0.559 ± 0.02
ALASPGLLVFTR | 0.673 ± 0.026
LLRYAPSALPLP | 0.6683 ± 0.0031
PPPVPPPWPSPF | 0.661 ± 0.047
IGSHDTRVVKMD | 0.731 ± 0.059
